According to PMC5632138 (Journal of molecular biology, 2017):
Blank lines part the entries; values can stand above or below the binder they belong to.

Assays:
ETV4 Phe428Ala/Phe432Ala = ETV4 Phe428Ala/Phe432Ala (UniProt P43268 1-484, F428A;F432A); test: EMSA
ETV4 Leu430Ala = ETV4 Leu430Ala (UniProt P43268 1-484, L430A); test: EMSA
ETV4 WT;MED25 ACID = ETV4 WT;MED25 ACID (human?;human, UniProt P43268;Q71SY5 1-484;391-553, |); test: EMSA
[1] = target: T1, MED25 ACID Gln430Glu (analyte) (human, UniProt Q71SY5 391-553, Gln430Glu); test: BLI
T1 sequence (looked up): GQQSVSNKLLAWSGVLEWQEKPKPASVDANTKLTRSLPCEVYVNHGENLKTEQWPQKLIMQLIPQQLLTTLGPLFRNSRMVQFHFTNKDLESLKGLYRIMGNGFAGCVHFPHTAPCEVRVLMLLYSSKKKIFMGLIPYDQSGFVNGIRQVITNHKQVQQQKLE

[2] = target: T2, MED25 ACID Lys518Ala/Lys519Ala/Lys520Ala (analyte) (human, UniProt Q71SY5 391-553, Lys518Ala | Lys519Ala | Lys520Ala); test: BLI
T2 sequence (looked up): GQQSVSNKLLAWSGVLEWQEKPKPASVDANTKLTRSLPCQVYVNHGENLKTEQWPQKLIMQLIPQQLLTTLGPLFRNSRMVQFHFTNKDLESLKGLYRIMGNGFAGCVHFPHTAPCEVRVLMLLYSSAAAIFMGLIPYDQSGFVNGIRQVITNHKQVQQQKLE

[3] = target: T3, MED25 ACID His474Glu (analyte) (human, UniProt Q71SY5 391-553, His474Glu); test: BLI
T3 sequence (looked up): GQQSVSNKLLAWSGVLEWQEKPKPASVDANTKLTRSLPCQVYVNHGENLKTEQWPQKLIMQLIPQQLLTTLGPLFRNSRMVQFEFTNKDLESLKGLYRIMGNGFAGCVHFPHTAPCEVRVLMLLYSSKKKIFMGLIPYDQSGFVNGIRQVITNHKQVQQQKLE

[4] = target: T4, MED25 ACID Tyr487Ser (analyte) (human, UniProt Q71SY5 391-553, Tyr487Ser); test: BLI
T4 sequence (looked up): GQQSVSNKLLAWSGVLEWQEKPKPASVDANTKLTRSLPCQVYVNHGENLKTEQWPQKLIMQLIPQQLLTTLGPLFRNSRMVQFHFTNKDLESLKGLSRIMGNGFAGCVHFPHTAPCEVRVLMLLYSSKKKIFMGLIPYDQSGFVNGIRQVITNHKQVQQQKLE

[5] = target: T5, MED25 ACID Met523Glu (analyte) (human, UniProt Q71SY5 391-553, Met523Glu); test: BLI
T5 sequence (looked up): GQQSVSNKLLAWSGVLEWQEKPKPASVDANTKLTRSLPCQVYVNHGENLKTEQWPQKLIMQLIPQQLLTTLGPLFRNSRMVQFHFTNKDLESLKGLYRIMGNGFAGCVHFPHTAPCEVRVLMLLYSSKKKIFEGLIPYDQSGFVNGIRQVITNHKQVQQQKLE

[6] = target: T6, MED25 ACID Leu514Glu (analyte) (human, UniProt Q71SY5 391-553, Leu514Glu); test: BLI
T6 sequence (looked up): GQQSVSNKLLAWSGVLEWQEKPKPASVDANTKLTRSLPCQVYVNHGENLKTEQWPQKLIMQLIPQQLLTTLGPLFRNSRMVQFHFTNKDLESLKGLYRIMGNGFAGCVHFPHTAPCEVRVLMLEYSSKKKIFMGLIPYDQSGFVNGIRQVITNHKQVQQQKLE

[7] = target: T7, MED25 ACID Ile521Glu (analyte) (human, UniProt Q71SY5 391-553, Ile521Glu); test: BLI
T7 sequence (looked up): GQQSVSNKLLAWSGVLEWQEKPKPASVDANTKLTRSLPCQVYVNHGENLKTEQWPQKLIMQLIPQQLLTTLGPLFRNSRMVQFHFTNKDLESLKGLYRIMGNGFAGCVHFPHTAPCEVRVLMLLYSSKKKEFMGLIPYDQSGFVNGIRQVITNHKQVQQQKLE

[8] = target: T8, MED25 ACID Arg466Glu (analyte) (human, UniProt Q71SY5 391-553, Arg466Glu); test: BLI
T8 sequence (looked up): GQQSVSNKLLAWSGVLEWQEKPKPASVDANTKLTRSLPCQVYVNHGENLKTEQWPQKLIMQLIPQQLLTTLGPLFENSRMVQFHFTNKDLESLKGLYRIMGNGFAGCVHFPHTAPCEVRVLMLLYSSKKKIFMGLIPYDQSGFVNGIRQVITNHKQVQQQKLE

[9] = target: T9, MED25 ACID (residues 391–553), from pET28 (human, UniProt Q71SY5 391-553); test: NMR titration
T9 sequence (looked up): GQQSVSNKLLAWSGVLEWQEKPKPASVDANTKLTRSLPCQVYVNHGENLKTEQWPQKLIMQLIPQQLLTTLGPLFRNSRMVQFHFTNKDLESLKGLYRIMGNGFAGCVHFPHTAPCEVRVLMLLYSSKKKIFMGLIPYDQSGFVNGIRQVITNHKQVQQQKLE

Chain of ETV4 Phe428Ala/Phe432Ala (P43268 whole entry F428A/F432A): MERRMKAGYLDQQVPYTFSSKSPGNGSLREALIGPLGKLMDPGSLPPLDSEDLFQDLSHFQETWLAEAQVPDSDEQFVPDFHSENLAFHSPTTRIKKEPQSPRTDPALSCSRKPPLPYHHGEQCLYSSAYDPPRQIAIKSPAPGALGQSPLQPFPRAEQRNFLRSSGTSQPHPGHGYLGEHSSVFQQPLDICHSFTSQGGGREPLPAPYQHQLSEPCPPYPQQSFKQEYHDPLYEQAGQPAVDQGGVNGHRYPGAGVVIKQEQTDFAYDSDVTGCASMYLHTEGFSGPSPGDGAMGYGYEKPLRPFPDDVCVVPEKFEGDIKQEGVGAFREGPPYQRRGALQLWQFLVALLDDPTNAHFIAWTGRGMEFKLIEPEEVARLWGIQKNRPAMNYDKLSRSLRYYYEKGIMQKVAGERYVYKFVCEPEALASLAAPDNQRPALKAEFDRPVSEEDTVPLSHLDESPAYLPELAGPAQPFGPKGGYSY
Chain of ETV4 Leu430Ala (P43268 whole entry L430A): as the sequence (P43268 whole entry F428A/F432A) above, with A428F, L430A, A432F counted along it
Chain of ETV4 WT;MED25 ACID (P43268 whole entry, one chain of several): as the sequence (P43268 whole entry F428A/F432A) above, with A428F, A432F counted along it

B1: 27-bp consensus ETS duplex (dsDNA)
DNA 1: TCGACGGCCAAGCCGGAAGTGAGTGCC
DNA 2: TCGAGGCACTCACTTCCGGCTTGGCCG
Kd (ETV4 Phe428Ala/Phe432Ala): 3.7 ± 0.8 nM
Kd (ETV4 Leu430Ala): 1.9 ± 0.4 nM
Kd (ETV4 WT;MED25 ACID): 2.1 ± 0.5 nM

binding result [1]: binds
binding result [2]: binds
binding result [3]: binds
binding result [4]: binds
binding result [5]: binds
binding result [6]: binds
binding result [7]: binds
binding result [8]: binds
B2: ETV4^337–436 (DNA-binding domain), biotinylated ligand for biolayer interferometry (domain or fragment, UniProt P43268 337-436, looked up)
chain: RRGALQLWQFLVALLDDPTNAHFIAWTGRGMEFKLIEPEEVARLWGIQKNRPAMNYDKLSRSLRYYYEKGIMQKVAGERYVYKFVCEPEALFSLAFPDNQ
modifications: biotin (biotinylated; D-biotin added at the induction point)

binding result [9]: binds
B3: ETV4^337–436 (DNA-binding domain), from pET28 (domain or fragment, UniProt P43268 337-436, looked up)
chain: RRGALQLWQFLVALLDDPTNAHFIAWTGRGMEFKLIEPEEVARLWGIQKNRPAMNYDKLSRSLRYYYEKGIMQKVAGERYVYKFVCEPEALFSLAFPDNQ
